# Test results as given in US20250101133A1 (published 2025).
# T1: recombinant human NEDP1 protein (human, UniProt Q96LD8 1-212)
# T1 chain: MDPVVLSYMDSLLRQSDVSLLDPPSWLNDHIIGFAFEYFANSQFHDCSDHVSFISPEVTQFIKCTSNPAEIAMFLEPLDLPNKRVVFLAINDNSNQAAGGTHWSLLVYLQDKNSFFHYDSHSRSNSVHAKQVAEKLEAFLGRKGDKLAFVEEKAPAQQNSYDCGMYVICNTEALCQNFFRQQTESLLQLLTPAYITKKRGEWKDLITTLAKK
# Experiments:
# Test in all cases: SPR
# [1] = biological target: T1, recombinant human NEDP1 protein
# Nb20 = biological target: Nb20
# Nb12 = biological target: Nb12
# Nb6 = biological target: Nb6
# Nb19 = biological target: Nb19
Binder,Kd [1],other results
"AbR2DP46, purified His6-tagged nanobody (VHH) VHH: QVQLQESGGGLVQAGGSLRLSCAASGSPFSIGTMAWYRQAPGNQRASVAAITRGGATTYANSVKGRFTVSRDNAKNTVYLQMNSLKPEDTAAYYCSVWAGDRAYWGQGTQVTVSS",6.98 nM,–
"AbR2DP35, purified His6-tagged nanobody (VHH) VHH: QVQLQESGGGLVQPGGSLTLSCAASGVMFSTGVMGWYRQAPGKQREAVAAITSGGLTTYKDSVKGRFAISRDNTKSTGYLQMNRLRPEDTAVYYCNVRGYWGQGTQVTVSS",< 0.01 nM,–
human NEDP1 (enzyme) MDPVVLSYMDSLLRQSDVSLLDPPSWLNDHIIGFAFEYFANSQFHDCSDHVSFISPEVTQFIKCTSNPAEIAMFLEPLDLPNKRVVFLAINDNSNQAAGGTHWSLLVYLQDKNSFFHYDSHSRSNSVHAKQVAEKLEAFLGRKGDKLAFVEEKAPAQQNSYDCGMYVICNTEALCQNFFRQQTESLLQLLTPAYITKKRGEWKDLITTLAKK,–,Kd (Nb20): 0.203 nM; Kd (Nb12): 0.33 nM; Kd (Nb6): < 0.01 nM; Kd (Nb19): 0.196 nM
"AbR2DP12, purified His6-tagged nanobody (VHH) VHH: QVQLQESGGGLVQAGGSLRLSCAASGSTSSFNVMAWYHQAPGKQRESVASITSGGITVYRDSVKGRFAISSDNAKNTVFLQMNSLKPEDTGVYYCGGVVDGRVYRGQGTQVTVSS",< 0.01 nM,–
"AbR2DP47, purified His6-tagged nanobody (VHH) VHH: QVQLQESGGGLVEPGGSLRLSCAASGSISSINVMAWYRQAPGKQRESVAAISSFGITTYSETVKGRFTASRDNAKNTMYLQMNNLKPEDTAVYYCKGPNTDWGQGTQVTVSS",5.39 nM,–
